Laboratory results reported in publication doi:10.1101/521351 (bioRxiv, 2019).

Tests used:
[1] = target: ICA512 RESP18HD (regulated endocrine-specific protein 18 homology domain of ICA512, residues 35-131) (human) (UniProt Q16849); test: co-sedimentation
light scattering = target: the molecule itself; test: light scattering

For Human insulin (ligand), which stoichiometry N ([1]; scale: mole of insulin per mole of ICA512 RESP18HD) is on record?
The stoichiometry N was 0.4.

And the stoichiometry N ([1]; scale: moles of insulin per mole of ICA512 RESP18HD)?
The stoichiometry N was 2.8.

B1: ICA512 RESP18HD (regulated endocrine-specific protein 18 homology domain of ICA512, residues 35-131) (domain or fragment, human, UniProt Q16849 35-131, looked up)
chain: VSAHGCLFDRRLCSHLEVCIQDGLFGQCQVGVGQARPLLQVTSPVLQRLQGVLRQLMSQGLSWHDDLTQYVISQEMERIPRLRPPEPRPRDRSGLAP
Does B1 bind (light scattering)?
Result: binds
